Data: PMC5548745, “Agonist-induced dimer dissociation as a macromolecular step in G protein-coupled receptor signaling” (Nature Communications, 2017)

Tests used:
Format in all cases: cell-based, human
[1] = system: FZD6–FZD6 dimer; assay: dcFRAP of V5-FZD6-mCherry/FZD6-GFP (FZD6 dimerization)
Summary of the method: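 Live cells co-expressing V5-FZD6-mCherry and FZD6-GFP, surface V5 tag crosslinked with biotin-anti-V5 plus avidin in BE buffer at RT. Membrane areas photobleached, recovery imaged (488/561 nm) over 100 s; mobile fraction from background/bleach-corrected, pre-bleach-normalized intensity at 85-101 s. Cells with <40% crosslink-induced mobility reduction excluded.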

[2] = system: FZD6–FZD6 dimer; assay: dynamic FCCS of V5-FZD6-mCherry/FZD6-GFP; details: HEK293; representative cell; G cc normalized to green auto-correlation amplitude; prior to stimulation
Method: HEK293 cells were grown over-night in Lab-Tek eight-well chamber-glass bottom slides (Nunc, Thermo Scientific, Langensbold, Germany) coated with matrigel. Data were acquired in 10 s intervals. Collection intervals containing abnormal fluorescence peaks (presumably resulting from aggregates or ROIs where the overall fluorescence was decaying, putatively due to membrane movements) were discarded from the overall analysis. The total included measurements time ranged from 20 to 80 s per cell. Measurements were only undertaken on cells where the fluorescence was well localized to the cell surface membrane, as judged by visual inspection in the wide-field and confocal mode. Autofluorescence, as well as fluorescence from both GFP and mCherry in the intracellular region was negligible. The number of fluorescent receptors assessed in each experiment varied from 10–1000 receptors per µm^2 in each HEK293 cell.
Dynamic FCCS measurements of WNT-dependent dissociation and re-association of FZD (Fig. 5c–e) were performed on an FCS/FCCS-equipped Zeiss 780 confocal microscope (Zeiss, Jena, Germany). The instrument details were the same as those of the Confocor 3 described above, with the exception that 561 nm excitation was used for excitation of mCherry, that GFP emission was detected from 500 to 550 nm, and that mCherry emission was detected from 600 to 690 nm. Experiments on cells were performed as described above, with each measurement point consisting of 3–6 measurements of 10 s each. […]
Assuming that M is FZD6-GFP (green) and N is FZD6-mCherry (red) and that all FZD6 form dimers, then the probability of finding a green–red FZD6 dimer is pgr=2×M×N/(M+N)(M+N-1)≈2×M×N/M+N^2=(2cgg+cgr)(2crr+cgr)/2cgg+cgr+crr^2 , where c gg, c gr, and c rr are the corresponding concentrations of the only green FZD6 dimers, the red and green FZD6 dimers and the only red FZD6 dimers. […] From the experiments, we determine the concentrations for c gg, c gr and c rr and compare the concentrations c gr with the c′gr for each cell to get an estimation of how close the model is to experimental data: cgr/c′gr=2cgr×(cgg+cgr+crr)/((2cgg+cgr)(2crr+cgr)) Analysis of the dynamic FCCS measurements of WNT-dependent dissociation and re-association of FZD6: Auto-correlation and cross-correlation curves were analyzed as described above and the amplitudes G g(0)−1, G r(0)−1, and G cc(0)−1 from each of the more than 300 measurements of 10 s duration were estimated by fitting to theoretical models. […]
With the settings described above for detection of emission, the crosstalk from the GFP channel to the mCherry channel, defined as the intensity detected in the mCherry channel divided by the intensity detected in the GFP channel, I r/I g, for a cell expressing only FZD-GFP, was 0.051 or 5.1 %. […]

[3] = system: FZD6–FZD6 dimer; assay: ratiometric FRET of C-terminally tagged FZD6 constructs

B1: FZD6-GFP: GFP-tagged human FZD6 receptor construct (protein)
chain: HSLFTCEPITVPRCMKMAYNMTFFPNLMGHYDQSIAAVEMEHFLPLANLECSPNIETFLCKAFVPTCIEQIHVVPPCRKLCEKVYSDCKKLIDTFGIRWPEELECDRLQYCDETVPVTFDPHTEFLGPQKKTEQVQRDIGFWCPRHLKTSGGQGYKFLGIDQCAPPCPNMYFKSDELEFAKSFIGTVSIFCLCATLFTFLTFLIDVRRFRYPERPIIYYSVCYSIVSLMYFIGFLLGDSTACNKADEKLELGDTVVLGSQNKACTVLFMLLYFFTMAGTVWWVILTITWFLAAGRKWSCEAIEQKAVWFHAVAWGTPGFLTVMLLAMNKVEGDNISGVCFVGLYDLDASRYFVLLPLCLCVFVGLSLLLAGIISLNHVRQVIQHDGRNQEKLKKFMIRIGVFSGLYLVPLVTLLGCYVYEQVNRITWEITWVSDHCRQYHIPCPYQAKAKARPELALFMIKYLMTLIVGISAVFWVGSKKTCTEWAGFFKRNRKRDPISESRRVLQESCEFFLKHNSKVKHKKKHYKPSSHKLKVISKSMGTSTGATANHGTSAVAITSHDYLGQETLTEIQTSPETSMREVKADGASTPRLREQDCGEPASPAASISRLSGEQVDGKGQAGSVSESARSEGRISPKSDITDTGLAQSNNLQVPSSSEPSSLKGSTSLLVHPVSGVRKEQGGGCHSDT
modifications: left off: V5 (on the crosslinked copy), N-terminal, kept | mCherry (on the crosslinked copy), C-terminal, kept | GFP (on the other, mobile copy), C-terminal, kept
notes: GFP-tagged human FZD6 receptor construct
In the case of B1, the “mobile fraction of FZD6-GFP before CL” value ([1]; HEK293, basal, without biotinylated anti-V5/avidin crosslinking, 85–101 s, mean ± s.e.m., N = 21 ROIs) is reported as 80.8 ± 2.0%, the “mobile fraction of FZD6-GFP after CL” value ([1]; HEK293, with biotinylated anti-V5/avidin crosslinking, 85–101 s, mean ± s.e.m., N = 31 ROIs) is reported as 70.7 ± 2.4% and the dimeric fraction ([1]; extrapolated from varying expression ratios, mCherry to GFP 1:1) is reported as “around 25%”. For the same molecule, the “red molecules also green prior to WNT-5A” value [2] was 11% and the “energy transfer between fluorophores (FRET)” value [3] was “not able to detect energy transfer”.
